# In article PMC5791736, “CCPG1 Is a Non-canonical Autophagy Cargo Receptor Essential for ER-Phagy and Pancreatic ER Proteostasis” (Developmental Cell, 2018):
# T1: GST-CCPG1 NTD (bacterial) (1-230) (human, UniProt Q9ULG6 1-230)
# T1 construct: CCPG1, human, N-terminal amino acids 1-230 (NTD); source: E. coli Rosetta II (DE3), pre-purified on glutathione Sepharose beads
# T1 sequence (looked up): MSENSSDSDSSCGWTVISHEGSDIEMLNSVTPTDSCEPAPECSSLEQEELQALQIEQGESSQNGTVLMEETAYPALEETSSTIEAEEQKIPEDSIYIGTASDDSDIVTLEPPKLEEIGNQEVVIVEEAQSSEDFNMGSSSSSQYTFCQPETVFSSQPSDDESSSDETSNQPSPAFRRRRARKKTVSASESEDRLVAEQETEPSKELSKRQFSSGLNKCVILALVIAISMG
# Target: T1, GST-CCPG1 NTD (bacterial) (1-230)
# Experiment: pull-down; GST-CCPG1 NTD pre-purified on glutathione Sepharose beads, incubated with purified recombinant protein (His-GABARAP or His-FIP200) in IGEPAL IP buffer, 4°C; immunoblot
# Conditions: both partners purified
binder,measurement,value
"His-GABARAP (natural protein, human, UniProt O95166 1-117, looked up, GABARAP, human ATG8 ortholog; also called purified, recombinant His-GABARAP; source: recombinant, purified) MKFVYKEEHPFEKRRSEGEKIRKKYPDRVPVIVEKAPKARIGDLDKKKYLVPSDLTVGQFYFLIRKRIHLRAEDALFFFVNNVIPPTSATMGQLYQEHHEEDFFLYIAYSDESVYGL",binding result,binds
